Test results taken from the supplement of paper PMC10567573.

B1: WDFY1 (parent)
chain: FWNIKQMWDTKTLGLRQHHCRKCG

Variants of: B1
Assay: protein stability index of a GFP-peptide fusion (GPS, HEK-293T) (PSI 1-6); higher = more stable
Settings: c terminus: a fixed tail appended
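Also: lentivirally expressed fusions sorted by FACS into six bins by GFP to DsRed ratio, PSI derived from sequencing read proportions per bin multiplied by bin number.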

Row | Variant | protein stability index
1 | FWNIKQMWDTKTLGHRQHHCRKCG [L15H] | 2.43
2 | FWNIKQMWDTKTLGNRQHHCRKCG [L15N] | 2.07
3 | FWNIKQMWDTKTLGIRQHHCRKCG [L15I] | 1.75
4 | FWNIKQMWDTKTLGQRQHHCRKCG [L15Q] | 2.29
5 | FWNIKQMWDTKTLGYRQHHCRKCG [L15Y] | 1.98
6 | FWNIKQMWDTKTLGGRQHHCRKCG [L15G] | 1.78
7 | FWNIKQMWDTKTLGFRQHHCRKCG [L15F] | 1.91
8 | FWNIKQMWDTKTLGKRQHHCRKCG [L15K] | 2.14
9 | FWNIKQMWDTKTLGPRQHHCRKCG [L15P] | 1.55
10 | FWNIKQMWDTKTLGARQHHCRKCG [L15A] | 2.27
11 | FWNIKQMWDTKTLGVRQHHCRKCG [L15V] | 2.35
12 | FWNIKQMWDTKTLGSRQHHCRKCG [L15S] | 2.95
13 | FWNIKQMWDTKTLGMRQHHCRKCG [L15M] | 1.79
14 | FWNIKQMWDTKTLGERQHHCRKCG [L15E] | 3.35
15 | FWNIKQMWDTKTLGRRQHHCRKCG [L15R] | 1.93
16 | FWNIKQMWDTKTLGCRQHHCRKCG [L15C] | 1.75
17 | FWNIKQMWDTKTLGDRQHHCRKCG [L15D] | 1.56
18 | FWNIKQMWDTKTLGTRQHHCRKCG [L15T] | 2.43
19 | FWNIKQMWDTKTLGLRAHHCRKCG [Q17A] | 1.6
20 | FWNIKQMWDTKTLGLRCHHCRKCG [Q17C] | 2.13
21 | FWNIKQMWDTKTLGLRDHHCRKCG [Q17D] | 1.63
22 | FWNIKQMWDTKTLKLRQHHCRKCG [G14K] | 1.79
23 | FWNIKQMWDTKTLCLRQHHCRKCG [G14C] | 2.27
24 | FWNIKQMWDTKTLMLRQHHCRKCG [G14M] | 1.75

Row | Variant | protein stability index
25 | FWNIKQMWDTKTLHLRQHHCRKCG [G14H] | 1.85
26 | FWNIKQMWDTKTLFLRQHHCRKCG [G14F] | 2.78
27 | FWNIKQMWDTKTLDLRQHHCRKCG [G14D] | 2.69
28 | FWNIKQMWDTKTLALRQHHCRKCG [G14A] | 2.1
29 | FWNIKQMWDTKTLPLRQHHCRKCG [G14P] | 2.11
30 | FWNIKQMWDTKTLILRQHHCRKCG [G14I] | 1.87
31 | FWNIKQMWDTKTLELRQHHCRKCG [G14E] | 2.44
32 | FWNIKQMWDTKTLTLRQHHCRKCG [G14T] | 2.68
33 | FWNIKQMWDTKTLLLRQHHCRKCG [G14L] | 2.54
34 | FWNIKQMWDTKTLSLRQHHCRKCG [G14S] | 1.97
35 | FWNIKQMWDTKTLYLRQHHCRKCG [G14Y] | 1.48
36 | FWNIKQMWDTKTLWLRQHHCRKCG [G14W] | 1.87
37 | FWNIKQMWDTKTLQLRQHHCRKCG [G14Q] | 2.54
38 | FWNIKQMWDTKTLNLRQHHCRKCG [G14N] | 2.08
39 | FWNIKQMWDTKTLVLRQHHCRKCG [G14V] | 1.58
40 | FWNIKQMWDTKTLRLRQHHCRKCG [G14R] | 3.17
41 | FWNIKQMWDTKILGLRQHHCRKCG [T12I] | 1.63
42 | FWNIKQMWDTKWLGLRQHHCRKCG [T12W] | 1.79
43 | FWNIKQMWDTKELGLRQHHCRKCG [T12E] | 1.72
44 | FWNIKQMWDTKFLGLRQHHCRKCG [T12F] | 2.11
45 | FWNIKQMWDTKSLGLRQHHCRKCG [T12S] | 2.14
46 | FWNIKQMWDTKYLGLRQHHCRKCG [T12Y] | 2.72
47 | FWNIKQMWDTKNLGLRQHHCRKCG [T12N] | 1.84
48 | FWNIKQMWDTKLLGLRQHHCRKCG [T12L] | 1.36

Row | Variant | protein stability index
49 | FWNIKQMWDTKPLGLRQHHCRKCG [T12P] | 1.98
50 | FWNIKQMWDTKMLGLRQHHCRKCG [T12M] | 2.6
51 | FWNIKQMWDTKHLGLRQHHCRKCG [T12H] | 1.86
52 | FWNIKQMWDTKQLGLRQHHCRKCG [T12Q] | 2.39
53 | FWNIKQMWDTKDLGLRQHHCRKCG [T12D] | 1.91
54 | FWNIKQMWDTKKLGLRQHHCRKCG [T12K] | 2
55 | FWNIKQMWDTKGLGLRQHHCRKCG [T12G] | 1.77
56 | FWNIKQMWDTKCLGLRQHHCRKCG [T12C] | 3.57
57 | FWNIKQMWDTKVLGLRQHHCRKCG [T12V] | 2.33
58 | FWNIKQMWDTKRLGLRQHHCRKCG [T12R] | 2.73
59 | FWNIKQMWDTKALGLRQHHCRKCG [T12A] | 2.29
60 | FWNIKQEWDTKTLGLRQHHCRKCG [M7E] | 2.48
61 | FWNIKQNWDTKTLGLRQHHCRKCG [M7N] | 2.46
62 | FWNIKQRWDTKTLGLRQHHCRKCG [M7R] | 2.58
63 | FWNIKQHWDTKTLGLRQHHCRKCG [M7H] | 2.9
64 | FWNIKQQWDTKTLGLRQHHCRKCG [M7Q] | 2.92
65 | FWNIKQWWDTKTLGLRQHHCRKCG [M7W] | 1.96
66 | FWNIKQGWDTKTLGLRQHHCRKCG [M7G] | 1.89
67 | FWNIKQSWDTKTLGLRQHHCRKCG [M7S] | 2.39
68 | FWNIKQPWDTKTLGLRQHHCRKCG [M7P] | 1.95
69 | FWNIKQTWDTKTLGLRQHHCRKCG [M7T] | 1.69
70 | FWNIKQYWDTKTLGLRQHHCRKCG [M7Y] | 2.45
71 | FWNIKQFWDTKTLGLRQHHCRKCG [M7F] | 1.77
72 | FWNIKQVWDTKTLGLRQHHCRKCG [M7V] | 1.64

Row | Variant | protein stability index
73 | FWNIKQKWDTKTLGLRQHHCRKCG [M7K] | 2.35
74 | FWNIKQLWDTKTLGLRQHHCRKCG [M7L] | 2.39
75 | FWNIKQDWDTKTLGLRQHHCRKCG [M7D] | 2.54
76 | FWNIKQIWDTKTLGLRQHHCRKCG [M7I] | 2.15
77 | FWNIKQMWQTKTLGLRQHHCRKCG [D9Q] | 1.5
78 | FWNIKQMWTTKTLGLRQHHCRKCG [D9T] | 1.47
79 | FWNIKQMWSTKTLGLRQHHCRKCG [D9S] | 2.02
80 | FWNIKQMWGTKTLGLRQHHCRKCG [D9G] | 1.73
81 | FWNIKQMWATKTLGLRQHHCRKCG [D9A] | 1.98
82 | FWNIKQMWWTKTLGLRQHHCRKCG [D9W] | 1.75
83 | FWNIKQMWHTKTLGLRQHHCRKCG [D9H] | 2.05
84 | FWNIKQMWVTKTLGLRQHHCRKCG [D9V] | 3.82
85 | FWNIKQMWCTKTLGLRQHHCRKCG [D9C] | 1.53
86 | FWNIKQMWETKTLGLRQHHCRKCG [D9E] | 1.95
87 | FWNIKQMWRTKTLGLRQHHCRKCG [D9R] | 2.24
88 | FWNIKQMWLTKTLGLRQHHCRKCG [D9L] | 1.6
89 | FWNIKQMWKTKTLGLRQHHCRKCG [D9K] | 1.33
90 | FWNIKQMWYTKTLGLRQHHCRKCG [D9Y] | 1.89
91 | FWNIKQMWMTKTLGLRQHHCRKCG [D9M] | 1.25
92 | FWNIKQMWFTKTLGLRQHHCRKCG [D9F] | 1.7
93 | FWNIKQMWITKTLGLRQHHCRKCG [D9I] | 1.94
94 | FWNIKQMWNTKTLGLRQHHCRKCG [D9N] | 1.77
